According to the supplement of paper PMC12042874:
± gives the uncertainty stated by the source.

Experiment: amyloid nucleation score (Sup35N fusion, yeast selection) (log enrichment); library NNK2; higher = more nucleation; inactive = no reads after selection
How it was run: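 After 24 hours of induction with 100 μM copper sulfate, psi-negative yeast expressing peptides of 20 random codons fused to Sup35N were grown for 7 days at 30°C on medium lacking adenine and uracil. Input and output plasmid inserts were sequenced with Illumina, and sequences with under 100 input reads were discarded. Scores for nucleation are the DiMSum log enrichment of output over input reads, centred on the mode score of non-aggregating sequences.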

Substance | amyloid nucleation score
LEMCVLR | 0.23 ± 0.45
LEPGAFRSIVFRIND | 0.961 ± 0.48
LEQFYCTMGSSFNMNGGMVI | -0.436 ± 0.29
LERNSMPITVSWSGFEGLKG | -0.295 ± 0.65
LFACFRNMLV | 0.504 ± 0.39
LFAYCMDSHLHTTSKFILTL | 0.047 ± 0.5
LFFYTYWC | inactive
LFGVYMLQVCVKNSKLSRSE | -0.133 ± 1
LFINNDTNDNYH | -1.18 ± 0.47
LFKCVSTGHYLLTFRVVVYG | -0.456 ± 0.39
LFKRGIVGDRGTKG | -0.905 ± 0.48
LFLQVGTAVGIRYINGAYLV | -0.959 ± 0.38
LFLTHPARWSSNLRRLL | 0.069 ± 0.3
LFMFGFGIL | 0.05 ± 0.42
LFMPGSFFDIFE | -2.05 ± 0.78
LFMRPCDLFEVVLSTVRLVW | 1.29 ± 0.52
LFNVMLCMP | 4.17 ± 0.048
LFRCELSLGRHMGFLDWEWG | 0.201 ± 0.38
LFRFYCMIANCIVLQN | 4.93 ± 0.045
LFRLSCIALCVGIIIVSDGV | -0.33 ± 0.79
LFRSHSCVCTLVKQ | -0.008 ± 0.46
LFRVMILC | -0.239 ± 0.42
LFSLTGIKLE | -0.483 ± 1.1
LFSSQLTATVRVPMSRNGLW | 7.088 ± 0.031
LFTEISKYQVYGVYWTALFE | -0.137 ± 1.1

Substance | amyloid nucleation score
LFTVYFKK | -0.6 ± 0.63
LFVCNSMP | 0.35 ± 0.8
LFVHYFSVGYSHLLCRDCTS | 3.23 ± 0.1
LFYAAEYKLCMEV | -0.857 ± 0.41
LFYRYFLCVTRRTNEYGVL | -1.75 ± 1
LGDAHALCGRLTVCRGGTGP | 3.58 ± 0.075
LGFFKSGVVH | inactive
LGFWL | -1.31 ± 0.41
LGGLSDVFQNRPLMTYGAWS | -0.303 ± 0.35
LGIKRNQI | -0.812 ± 0.45
LGIYVFAFKRMVNMEDLYTR | -1.05 ± 0.41
LGNTRSIWGE | 0.578 ± 0.27
LGPAYYYHNYLNLRGLSSGM | 0.504 ± 0.74
LGPLVYFLFVNIPNQGFFLC | 1.56 ± 0.16
LGRWASGTAG | 0.558 ± 0.57
LGSVVSTPFCYSMFRTFKKH | 0.109 ± 0.27
LGVESTCRSWFMFLGTQRIA | -0.342 ± 1
LGWINKWKRLSNIPIAKWHC | inactive
LGYGRWCKVARPEYESGLTM | 0.042 ± 1.1
LHAIHSFDWPTSLIVYHP | inactive
LHFQYERSWNARSTLM | 4.08 ± 0.076
LHFSGFTKFRFIMVFGKKVC | -1.24 ± 0.49
LHGVSAIMLGTIGARVN | -0.125 ± 0.49
LHIKW | 5.728 ± 0.033
LHKISIGKCSRCSCRNTFGE | -0.171 ± 1

Substance | amyloid nucleation score
LHLEMTEW | inactive
LHNMNWPLFVLVACLVDIPT | -0.724 ± 0.42
LHPLVSLVVHTFMPEVRLVL | inactive
LHRKWFGYGCTCSWIGWEEW | -0.002 ± 0.48
LHSRFL | 0.236 ± 1.1
LHTLVALINACRNASGSVHD | 0.167 ± 0.65
LIAGYDAWWSSKMSRHKVSV | -0.232 ± 0.27
LICAL | 0.61 ± 0.39
LICSHTLIRVYVKFF | 1.16 ± 0.3
LIDNFS | -0.351 ± 0.45
LIFGAKLESGYASVEFSDSD | -0.347 ± 1
LIGAATSKNVIRCNGWDGDQ | 0.848 ± 0.57
LIGDSLSVVRNRNFPPARGK | -0.237 ± 1
LIGEVAYFICHFSKVVARLF | 2.06 ± 0.075
LIIQRLEGAF | -0.245 ± 0.32
LIKVVVMS | 1.04 ± 0.42
LILLFLTAQRLCLVSDEESE | -0.409 ± 0.41
LIMLASSLWTRKGGDTST | 6.292 ± 0.053
LIMYGTKLSRLVMLLYYWTW | 0.031 ± 0.34
LINPCVRLWLCNCIFTFESA | 7.872 ± 0.027
LINVMLS | inactive
LIRPSLPSS | 0.807 ± 0.28
LIRVYRKVGLVTLLHGMNRM | 0.039 ± 0.32
LIVGAIASLHHTLQVNGSPN | 4.59 ± 0.11
LIVWT | 0.593 ± 0.54

Substance | amyloid nucleation score
LIWVRGNEGRFGGRLVLVVE | inactive
LKCSFAVTDAWIGNRRAQRQ | 1 ± 0.2
LKITRRSALV | 0.186 ± 0.76
LKNLGYNMSPMYHWHCSSSK | -0.003 ± 1.1
LKPSSFVYIITDQFSNHIVM | 5.84 ± 0.065
LKQTGQLRVMSN | 0.039 ± 0.79
LKRGYSFMRCLGVWRFQEPD | -0.158 ± 0.25
LKRNMWFLYRGTFARSYYAN | -1.03 ± 0.55
LKSSWPFDVKKAYKCYVKFA | 0.006 ± 0.65
LKTACVDALLH | 0.258 ± 0.26
LKWRVRWAIKED | 0.547 ± 0.21
LLCSPEGVYGKCTGGFRQTL | 0.581 ± 0.39
LLDLALRLTMGLITKHEANK | 3.61 ± 0.064
LLDYLYDIGRHTKGK | -0.337 ± 1.1
LLEVGSKKCGHPLSTYSKAN | 0.463 ± 0.48
LLEYNIFLRSIVFDGREEWA | 3.18 ± 0.058
LLFCKPDAHFVLCSFYPLML | inactive
LLFINGHAMTGAVYTITKLT | -0.302 ± 0.36
LLFTLGNGGFSLRYKK | -0.265 ± 0.23
LLFVLAKGNKTCSTPCIEIH | -0.628 ± 0.27
LLGAGLSITMWDGPQL | 0.654 ± 0.23
LLGARDFGWGLHGLLGYRLG | 0.123 ± 0.56
LLGSLLIFPMES | -1.52 ± 0.78
LLICDSMHHTM | 0.275 ± 0.48
LLKTSASCIMHGEKQKWMLA | 0.671 ± 0.64

Substance | amyloid nucleation score
LLLILTL | 0.21 ± 1
LLLSFTCLRHTGWFFIRRCC | -0.631 ± 0.41
LLLVPIPH | 1.07 ± 0.38
LLNLTSLLRKCLFKNRRKFI | -0.972 ± 0.36
LLPMGYAYISYSLLGNYMSG | -1.37 ± 0.48
LLPSHISASNHIWWLKTS | 0.307 ± 0.31
LLPWGVTMVERLFIPIRCSD | 0.308 ± 0.35
LLSGEDQLMKYLKSKNSCLW | -0.67 ± 0.79
LLSKGLA | -0.682 ± 0.32
LLSQKRGCHVSGHIGVEA | -0.218 ± 0.31
LLSTDESCSTLNIYCIYTPR | 8.139 ± 0.045
LLTAFTTYYLIYHSFSRYLA | -1.47 ± 1.1
LLTCEASRTPARSQLLASEG | 0.851 ± 0.4
LLTNAVRGLG | 0.302 ± 0.56
LLVKRCSAKPNLRRLLKLMC | -0.097 ± 0.76
LLVSSVSMTWHGKLSHTYFK | 4.62 ± 0.059
LLVVCSNLQNKVCRRNPEVF | -1.79 ± 0.49
LLWCIERG | 0.946 ± 0.51
LLWLPR | 0.376 ± 0.31
LLWWMCQYEIFWDKMLYLES | 0.074 ± 1
LLYCYSLFVVSFDYTFHQRF | 6.15 ± 0.062
LMAKQFIPGTYTLRGSSFHG | -0.677 ± 0.3
LMGGYLEYGSFVTT | 0.453 ± 0.51
LMMKEPDPSVC | -0.101 ± 0.42
LMMTSVYLKLGWSFFIFRHR | -0.238 ± 1.1

Substance | amyloid nucleation score
LMSCRILRSAKRGHSNVKRF | 0.254 ± 0.46
LMTSDAGSLAIVVVNCNFGT | 7.942 ± 0.023
LMVTKLSCSCFCLFSVPRSQ | 0.783 ± 0.74
LMWADLLLKKLILFA | -0.334 ± 0.64
LNAYGGRCSL | 0.317 ± 0.5
LNGCSRILAFYMGCSCGGLM | -1.02 ± 0.76
LNGGKLWNHRDLWDRTGQVY | -0.266 ± 1
LNGSADTLD | -0.755 ± 0.41
LNHPTGCEYRWEARPNLCEK | -0.553 ± 0.63
LNIIMGSSDFCPESFYKFW | 0.266 ± 1
LNKNLLEKCLYRDLLLSVFW | -2.32 ± 1.1
LNLMVTW | -0.926 ± 0.78
LNSANSFWCVRRYCGTAQMQ | -1.29 ± 1.1
LNTNPARYLPGMFNPRSKYL | -0.324 ± 1.1
LNTSSYFVIDDFWIIFRRCR | -0.814 ± 0.55
LNTVYCN | -1.09 ± 0.47
LNVGIFNLLTSSGFMGTIRR | 4.39 ± 0.045
LNVKFK | -0.966 ± 1.1
LPCGVSLALHSWENYILNRP | 0.55 ± 0.52
LPEIHLVTLC | -0.802 ± 0.49
LPGSRHNSRMSLRTQVVKVL | inactive
LPLLCFTDV | inactive
LPLLSWDPRNTSP | -0.218 ± 0.53
LQTFMNVGVFSGDKEYPCVF | 0.662 ± 0.66
LQVLARVDRLSHPGR | 0.636 ± 0.81

Substance | amyloid nucleation score
LQYCHRGC | -0.179 ± 0.44
LRFKNVWWPYGDYECATIIT | -0.468 ± 0.41
LRFSWDKISFVVRWLVVGLT | 0.138 ± 0.19
LRFYPW | 1.14 ± 0.36
LRGMTLFTPVTLTNSNCMVT | 0.437 ± 0.18
LRGYCLRWRHWTVSILEFGV | -1.02 ± 0.76
LRHDR | 0.43 ± 0.32
LRKHFWLGCEGAWLVFG | 4.81 ± 0.08
LRKWILLLRDYDSLYFCLVA | -0.996 ± 0.36
LRLARKRVECFVLLADFNNR | 0.306 ± 0.53
LRQCKGLRVLLPTGWSYKCE | 1.67 ± 0.58
LRQGCFQTVKLDYRES | -0.032 ± 1.1
LRRSGRSENSRRMTWVWW | 2.75 ± 0.17
LRSACCLIRSLNTAVCGWTK | 4.22 ± 0.048
LRSFM | -0.591 ± 0.5
LRSKTDAPDGRFLAWSSMLC | 0.458 ± 0.25
LRTGHPSI | inactive
LRVMSVRYSICVKYNVEFRL | 1.18 ± 0.21
LRVVIHPVRNAGCLGKYGAN | -0.509 ± 0.33
LRVVSES | -0.599 ± 0.35
LRVYKTNTRQDLKLDTIMVG | -1.14 ± 0.34
LRYAYTFDVDLSTRQAAVSL | -0.573 ± 0.79
LSDGN | -1.04 ± 0.76
LSEFYRLRYYTGCQ | 1.05 ± 0.31
LSFFGRDDLNRLHN | -1.41 ± 1.1
